For the experiment, the target named is mouse CD3 (mouse CD36E [sic], Sino Biologicals Inc., Cat. No. CT033-M2508H) (mouse) (UniProt P22646). In words: SPR.

This passage reports Kd, koff and kon results from US20150329637A1 (NUMAB, published 2015).

Chain of mouse CD3 (mouse CD36E [sic], Sino Biologicals Inc., Cat. No. CT033-M2508H) (mouse) (P22646 22-108, chain 1 of 2): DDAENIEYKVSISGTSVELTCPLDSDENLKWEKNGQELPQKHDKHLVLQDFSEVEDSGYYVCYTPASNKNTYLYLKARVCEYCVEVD
Chain of mouse CD3 (mouse CD36E [sic], Sino Biologicals Inc., Cat. No. CT033-M2508H) (mouse) (P04235 22-105, chain 2 of 2, further chain): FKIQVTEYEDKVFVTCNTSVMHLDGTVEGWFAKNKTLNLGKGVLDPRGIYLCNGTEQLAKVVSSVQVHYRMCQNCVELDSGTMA

B1: PRO400 (Fab, V domains shown)
VH: EVQLVESGGGLVQPGKSLKLSCEASGFTFSGYGMHWVRQAPGRGLESVAYITSSSINIKYADAVKGRFTVSRDNAKNLLFLQMNILKSEDTAMYYCARFDWDKNYWGQGTMVTVSS
VL: DIQMTQSPSSLPASLGDRVTINCQASQDISNYLNWYQQKPGKAPKLLIYYTNKLADGVPSRFSGSGSGRDSSFTISSLESEDIGSYYCQQYYNYPWTFGPGTKLEIKR
One may read the Kd as the free concentration of one partner at which half of the binding sites on the other are occupied at equilibrium, for simple one-to-one binding. A lower Kd goes with a tighter complex. As a reminder, the koff is the first-order rate constant of dissociation. A high value points to a short-lived complex. Usually kon stands for the rate constant with which the complex forms. A higher kon goes with fast association. Regarding B1, the Kd is 11.4 nM, the koff was 0.00266 s⁻¹ and the kon was found to be 233000 M⁻¹ s⁻¹.
